The assay has as its target biotinylated Sos1^PRS peptide. Briefly: BLI.

The Kd is a measure of binding affinity in units of concentration. A high value points to weaker binding. The substance “GST-tagged Grb2^SH3C (C-terminal SH3 domain of Grb2) (domain or fragment)” registered a Kd of 14.7 µM.

The values are drawn from paper doi:10.1101/2025.02.16.638521.
